# Several values for one entry are separate records, joined by “and”; a condition that tells them apart may be missing. Equal values may be shown once. Entries after “also recorded” stand apart in the source; their conditions may differ.
# B1: IFN-β: recombinant rat IFN-β (Cell Sciences Inc., Canton, Mass.) (protein, UniProt P70499 22-184, looked up)
# Interferon beta: IDYKQLQFRQSTSIRTCQKLLRQLNGRLNLSYRTDFKIPMEVMHPSQMEKSYTAFAIQVMLQNVFLVFRSNFSSTGWNETIVESLLDELHQQTELLEIILKEKQEERLTWVTSTTTLGLKSYYWRVQRYLKDKKYNSYAWMVVRAEVFRNFSIILRLNRNFQN
# How the values were obtained:
# female Wistar rats [1] = assay: Visual observation of injection site irritation; type: in vivo, rat; conditions: ID administration, 3 times/wk for 24 weeks
# Source text: (§1) Blood samples were collected once a week.
# FIGS. 16A-B show injection site photos of IFN-β to female Wistar rats. Panel A is an intramuscular injection. The back of a rat's leg is shown. The injection was made into the hamstring muscle. Panel B is an intradermal injection on the rat's back. The “bleb” is circled. No irritation is evident in either photo. These photos were taken immediately post-injection.
# female Wistar rats [2] = conditions: rat, in vivo
# female Wistar rats [3] = conditions: rat, in vivo; remark: listed apart in the source
# Procedure: MATERIALS AND METHODS: Antibody titers were evaluated using an ELISA assay. 100 μL of 1 μg/mL of rat interferon beta (Cell Sciences Inc. (Canton, Mass.)) in coating buffer was added to the wells of a 96 well plate. The plate was incubated at 4° C. overnight. Well contents were removed and the wells were blocked with 5% skim milk in PBST for 2 hours at 37° C. Wells were washed and 100 μL of serum samples were added to the first row of wells. Samples were serially diluted across the plate. The plate was incubated for 1 hour at 37° C. and washed. 100 μL of 1:4000 diluted, anti-rat HRP-conjugated antibody was added to each well and the plate was incubated for 30-60 minutes at 37° C. 100 μL of TMB color developer was added to each well. 200 μL of hydrochloric acid reaction stopper was added to each well. The plate was read at 450 nm. The antibody titer is the dilution giving 3 times absorbance of blank serum.
# STUDY DESIGN: A chronic dosing regimen was performed in female Wistar rats using recombinant rat IFN-β (Cell Sciences Inc. (Canton, Mass.)). An injection route comparison was performed evaluating the immunogenicity of IFN-β upon injection intradermally or intramuscularly. IFN-β was injected intradermally using BD's 34 Ga, 1 mm needle and injected intramuscularly using BD 30 Ga×0.5″ to the hamstring muscle. […] Blood samples were collected once a week.
# female Wistar rats [4] = assay: Isotype specific (IgG1, IgG2b) antibody response against IFN-β by ELISA; type: in vivo, rat
# Procedure: Isotype specific antibody responses against IFN-β were determined at weeks 2 and 24 post-injection using an ELISA Quantification Kit, commercially available from Bethyl Laboratories (Bethyl Inc., Montgomery, Tex.). A 96 well microtiter plate (Nunc Maxi-sorb plate) was coated with 1 μg/mL of IFN antigen and incubated overnight at 4° C. (to generate a standard curve wells were coated with 1 μL of capture antibody to 100 μL coating buffer); plates were washed with 50 mM Tris buffered saline, pH 8.0, 0.05% Tween (Sigma #T9039); 200 μL of Post Coat/Block solution (50 mM Tris buffered saline, pH 8.0, 1% BSA; Sigma #T6789) was added per well and incubated covered for 30 minutes at room temperature. Standards were prepared according to the package insert using the Sample/Conjugate Diluent (0.5 mL of 10% Tween 20; Sigma # P7949) per 100 mL of PostCoat/Block Solution; sample dilutions were made using the Sample/Conjugate Diluent; 100 μL of standard or sample was transferred to assigned wells and incubated for 1 hour at room temperature; conjugate was prepared according to package insert (1:20,000 for IgG1 and 1:40,000 for IgG2b); 100 μL of the conjugate was added per well and incubated for 1 hour at room temperature; 100 μL of TMB per well was added and incubated at room temperature for 30 minutes; 200 μL of 0.5 M H2SO4 per well was added to stop the reaction; plates were read at 450 nm.
# as §1
# female Wistar rats [5] = assay: Histological evaluation of injection site following IM and ID administration of interferon-beta; type: in vivo, rat
# Source text: Sample Preparation: For ID injection, the skin was removed from each injection site and placed on a small card. The excised skin was approximately lcm in diameter with the needle insertion point in the center. The center of the injection was marked with black tattoo ink at time of injection to help identify the needle insertion point. Samples were placed in individual containers with 10% formalin for fixation. For IM injection, the needle insertion point was marked with black tattoo ink at the time of injection. The skin was carefully lifted and the muscle surface directly below the needle insertion point was marked with black tattoo ink. The hamstring muscle was collected and placed on a small card. Samples were placed in individual containers with 10% formalin for fixation. […]
# Sample Identification: Samples are identified by the following system. In animals 801, 803, 804, 806, 807, 808, 809 and 810 intramuscular injections were made to the hamstring muscle of female Wistar rats. In animals 811, 812, 813, 814, 815, 816, 817, 818, 819 and 820 intradermal injections (approximately 1 mm deep) were made to the lateral dorsum of female Wistar rats.
# Specimen Preparation: A single section was taken from each sample. Tissue was blocked to a size appropriate for sectioning. The section was taken through the needle insertion track. Sections were H&E stained and evaluated. If evidence of irritation was observed, further sections were taken to determine the extent of the irritation. Samples were graded on a multi-parameter irritancy scale. Histological alterations were graded on the following 5-grade scale: • Grade 0: Normal/Absent/None • Grade 1: Minimal/Cell Degeneration • Grade 2: Mild/Cell Necrosis • Grade 3: Moderate/Focal Erosion • Grade 4: Marked/Massive/Generalized Erosion • Present: Finding present/Severity not scored
# In addition to the grading scale, descriptions of changes and findings were documented. Measurements were taken of the Width and Depth of any site irritation as well as skin thickness. Representative photos were taken of each condition.
# Study Design: Rat interferon beta (Cell Sciences Inc. (Canton, Mass.)) was administered IM or ID in phosphate buffered saline using methods described supra. The animals were divided according to the following scheme:
# Intramuscular Group—Day 1: The hair on the back and on the back of the rear leg was clipped. Injection was performed using a BD 30 G×0.5″ needle to the hamstring muscle. 50 μL was injected. The center of the injection was marked with black tattoo ink to help aid in injection track identification. Rats were returned to their cages for recovery.
# Intramuscular Group—Day 2 (24 hrs. post-injection): Rats were euthanized by CO2 asphxiation and the skin from rear leg was removed. The muscle directly below the needle insertion point on the skin was marked with black tattoo ink. The hamstring muscle was excised, placed on small card and stored in 10% formalin solution.
# Intradermal group-Day 1 The hair on the lateral dorsum was closely clipped. and injection was performed using a 1 mm BD microneedle. 50 μL was injected The center of the injection was marked with black tattoo ink to help aid needle track identification. Rats were returned to their cages for recovery.
# […] A 1 cm diameter margin of skin (full-thickness) around the injection site was excised. Skin was placed on a small card and stored in 10% formalin solution.
# [6] = ID injection, individual animals, marked grade
molecule,measurement,setting,value
B1,"acute or chronic injection site irritation (external, visual)",female Wistar rats [1],No external acute or chronic injection site irritation
same,"mean IFN-β specific NAbs titers, IM vs ID",female Wistar rats [2],not significantly different
same,animals with increase in titer from week 12,female Wistar rats [3],one
same,animals with marked increase in titer from week 12,female Wistar rats [3],Three
same,"antibody response, ID vs IM",female Wistar rats [3],slightly stronger
same,"antibody response, IM vs ID",female Wistar rats [3],slightly higher
same,"antibody titers by ELISA, IM vs ID",female Wistar rats [3],not significantly different
same,"mean antibody response, IM vs ID",female Wistar rats [3],higher mean antibody response
same,"mean antibody titers by ELISA, IM vs ID (two sample t-test)",female Wistar rats [3],not significantly different
same,"IFN-β specific IgG1 antibody, ID vs IM",female Wistar rats [4]; week 2,only one animal showed any detectable IgG1 antibody; also recorded: higher
same,IFN-β specific IgG2b antibody,"female Wistar rats [4]; week 2, IM or ID",no IgG2b was detectable
same,"mean IFN-β specific IgG2b concentration, ID vs IM",female Wistar rats [4]; week 24,not significantly different; also recorded: comparable
same,"cellular reaction, in general",female Wistar rats [5]; 2 weeks,minimal
same,infiltration of injection sites with lymphocytes and neutrophils,"female Wistar rats [5]; 2 weeks, intradermal sites",minimally infiltrated
same,"inflammatory cell infiltrates of injection sites, compared with intradermal sites","female Wistar rats [5]; 2 weeks, intramuscular sites",more prominent
same,cellular reaction (inflammation),"female Wistar rats [5]; 24 weeks, ID injection",minimal to moderate
same,Irritation Index,"female Wistar rats [5]; ID injection, individual animals 811-820, 24 hours post-injection",3 and 2
same,"Dermis, leukocyte infiltration (per 40× field)",female Wistar rats [5]; [6],Moderate - 51-100 (Moderate - 51-100)
same,Edema grade,female Wistar rats [5]; [6],Absent
same,Epidermis reaction grade,female Wistar rats [5]; [6],"Normal, intact"
same,Vascular Congestion grade,female Wistar rats [5]; [6],Absent
same,overall irritation index designation / histopathological classification of irritation,female Wistar rats [5]; ID sites,minimal

# From US20050196380A1, “Method for delivering therapeutic proteins to the intradermal compartment” (priority 2004, published 2005)
